In publication PMC11679068, “Affinity Peptide-Based Circularly Permuted Fluorescent Protein Biosensors for Non-Small Cell Lung Cancer Diagnosis” (Sensors (Basel, Switzerland), 2024) one finds Kd data, which are given here for ten molecules.

One assay has as its target CYFRA 21-1. The experiment in a line: BLI binding affinity of synthesized peptides to immobilized CYFRA 21-1. The settings on record: Octet RH96, CYFRA 21-1 immobilized on AR2G biosensors by amine coupling, room temperature, association 90 s, dissociation 180 s, KD = kd/ka.
Another assay has as its target T1, cytokeratin fragment 19 (Limits are not printed. The conventional CYFRA 21-1 soluble C-terminal fragment of KRT19 (after caspase-3 cleavage at Asp238) is used; from general knowledge, not from the paper or the candidate featu).
T1 chain: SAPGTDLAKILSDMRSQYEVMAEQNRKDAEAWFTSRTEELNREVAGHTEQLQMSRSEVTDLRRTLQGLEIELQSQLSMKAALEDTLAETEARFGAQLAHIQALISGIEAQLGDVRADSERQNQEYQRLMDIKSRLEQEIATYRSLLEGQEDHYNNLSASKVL
The experiment in a line: BLI; Octet RH96; CEA, SCCAg or CYFRA 21-1 immobilised on AR2G biosensors by amine coupling; peptides in a range of concentrations; room temperature; association 90 s, dissociation 180 s; KD as kd/ka. The settings on record: both partners purified.

The next assay concerns the target T2, carcinoembryonic antigen (UniProt P06731 35-685).
T2 construct: carcinoembryonic antigen (CEA), serum tumor marker; also called CEA; CAE
T2 sequence (looked up): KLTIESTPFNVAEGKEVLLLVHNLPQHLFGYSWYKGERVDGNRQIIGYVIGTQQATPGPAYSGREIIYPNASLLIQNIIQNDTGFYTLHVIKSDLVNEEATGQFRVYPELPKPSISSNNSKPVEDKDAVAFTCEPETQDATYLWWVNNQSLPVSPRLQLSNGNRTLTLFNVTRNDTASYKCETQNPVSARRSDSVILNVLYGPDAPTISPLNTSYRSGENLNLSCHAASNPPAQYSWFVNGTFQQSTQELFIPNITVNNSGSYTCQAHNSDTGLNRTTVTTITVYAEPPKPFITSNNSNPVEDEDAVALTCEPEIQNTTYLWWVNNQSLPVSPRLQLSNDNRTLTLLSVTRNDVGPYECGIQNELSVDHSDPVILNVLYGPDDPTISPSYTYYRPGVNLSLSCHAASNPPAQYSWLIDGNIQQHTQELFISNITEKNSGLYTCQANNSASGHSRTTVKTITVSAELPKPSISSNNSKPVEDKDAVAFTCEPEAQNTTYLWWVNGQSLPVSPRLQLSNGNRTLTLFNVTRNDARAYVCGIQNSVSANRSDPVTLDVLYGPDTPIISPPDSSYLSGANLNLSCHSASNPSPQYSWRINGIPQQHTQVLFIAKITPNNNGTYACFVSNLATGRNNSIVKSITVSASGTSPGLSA
Described as above. As to conditions: both partners purified.

Assay [1] deals with squamous cell carcinoma antigen (UniProt P29508 1-390). Described as above. The settings on record: both partners purified.

Peptide text beside a SMILES is read from it.

squamous cell carcinoma antigen, sequence (P29508 whole entry): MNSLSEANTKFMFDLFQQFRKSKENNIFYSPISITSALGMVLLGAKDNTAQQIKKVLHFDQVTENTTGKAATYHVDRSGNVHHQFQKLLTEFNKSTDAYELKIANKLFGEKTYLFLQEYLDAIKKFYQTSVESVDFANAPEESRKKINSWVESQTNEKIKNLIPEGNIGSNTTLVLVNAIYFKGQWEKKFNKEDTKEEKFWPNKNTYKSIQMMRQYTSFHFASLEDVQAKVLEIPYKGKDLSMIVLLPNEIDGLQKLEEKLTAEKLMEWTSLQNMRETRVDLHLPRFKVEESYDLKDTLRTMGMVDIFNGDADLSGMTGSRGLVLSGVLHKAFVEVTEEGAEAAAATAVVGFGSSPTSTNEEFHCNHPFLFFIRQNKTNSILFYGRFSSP

`CSCC[C@H](NC(=O)CN)C(=O)N[C@@H](CS)C(=O)N[C@@H](CO)C(=O)N[C@@H](Cc1ccccc1)C(=O)N[C@H](C(=O)N[C@@H](CC(=O)O)C(=O)N[C@H](C(=O)N[C@@H](C)C(=O)N[C@@H](CC(N)=O)C(=O)N[C@@H](CS)C(=O)N1CCC[C@H]1C(=O)O)C(C)C)C(C)C` [Peptide Y3] (H-GMCSFVDVANCP-OH) displayed a Kd on CYFRA 21-1 of 14 nM.

B1: synthetic peptide Y10 (peptide)
peptide: QSYFNACWSCNH
notes: source: synthetic peptide (Fmoc solid phase, Synpeptide Co., HPLC purified)
Molecule B1 showed a Kd in the assay with cytokeratin fragment 19 of 1000 nM.

B2: synthetic peptide C4 (peptide)
peptide: HHRLTRSMQLMM
notes: dodecapeptide C4 from phage display, synthesized; source: synthetic peptide (Fmoc solid phase, Synpeptide Co., HPLC purified)
B2: in the assay with carcinoembryonic antigen, the Kd came to 16 nM.

B3: synthetic peptide Y3 (peptide)
peptide: GMCSFVDVANCP
notes: dodecapeptide Y3 from phage display, synthesized; source: synthetic peptide (Fmoc solid phase, Synpeptide Co., HPLC purified)
As to B3, the affinity in the assay with cytokeratin fragment 19, expressed as Kd, was 14 nM.

B4: synthetic peptide Y1 (peptide)
peptide: CFAGTPSILMLA
notes: dodecapeptide Y1 from phage display, synthesized; source: synthetic peptide (Fmoc solid phase, Synpeptide Co., HPLC purified)
As for B4, the Kd with cytokeratin fragment 19 came to 83 nM.

B5: synthetic peptide S1 (peptide)
peptide: TLSWHQNLRLME
notes: dodecapeptide S1 from phage display, synthesized; source: synthetic peptide (Fmoc solid phase, Synpeptide Co., HPLC purified)
Take B5: the Kd in assay [1] was 28 nM.

B6: synthetic peptide C3 (peptide)
peptide: WSPSALLPSSVT
notes: dodecapeptide C3 from phage display, synthesized; source: synthetic peptide (Fmoc solid phase, Synpeptide Co., HPLC purified)
For the molecule B6, the Kd with carcinoembryonic antigen was found to be 460 nM.

B7: synthetic peptide S3 (peptide)
peptide: IQCFSLAPYVGC
notes: dodecapeptide S3 from phage display, synthesized; source: synthetic peptide (Fmoc solid phase, Synpeptide Co., HPLC purified)
Take B7: in assay [1], the dissociation constant Kd came to 2900 nM.

B8: synthetic peptide C2 (peptide)
peptide: YGVSALSSYVSC
notes: dodecapeptide C2 from phage display, synthesized; source: synthetic peptide (Fmoc solid phase, Synpeptide Co., HPLC purified)
The molecule B8 had a Kd with carcinoembryonic antigen of 870 nM.

B9: synthetic peptide S2 (peptide)
peptide: AYSRDVVLNMWR
notes: dodecapeptide S2 from phage display, synthesized; source: synthetic peptide (Fmoc solid phase, Synpeptide Co., HPLC purified)
In assay [1], B9 returned an equilibrium dissociation constant (Kd) of 6.1 nM.
